Experimental data taken from patent US20140011746A1 (WISCONSIN ALUMNI RESEARCH FOUNDATION, published 2014).
One block for each binder: values may come before it.

Experiments:
[1] = target: T1, EGFR (human, UniProt P00533 25-1210); assay: co-immunoprecipitation from cell lysates
T1 construct: whole, on cells; Endogenous protein in cell lysates

[2] = target: T2, α3β1 integrin (human, UniProt P26006 33-1051; P05556 21-798); assay: immunoprecipitation of native mSdc4 or mSdc4ΔC2 (FIG. 6D)
T2 construct: whole, on cells; Endogenous receptor in cell lysates
T2 sequence (P26006 33-1051, chain 1 of 2): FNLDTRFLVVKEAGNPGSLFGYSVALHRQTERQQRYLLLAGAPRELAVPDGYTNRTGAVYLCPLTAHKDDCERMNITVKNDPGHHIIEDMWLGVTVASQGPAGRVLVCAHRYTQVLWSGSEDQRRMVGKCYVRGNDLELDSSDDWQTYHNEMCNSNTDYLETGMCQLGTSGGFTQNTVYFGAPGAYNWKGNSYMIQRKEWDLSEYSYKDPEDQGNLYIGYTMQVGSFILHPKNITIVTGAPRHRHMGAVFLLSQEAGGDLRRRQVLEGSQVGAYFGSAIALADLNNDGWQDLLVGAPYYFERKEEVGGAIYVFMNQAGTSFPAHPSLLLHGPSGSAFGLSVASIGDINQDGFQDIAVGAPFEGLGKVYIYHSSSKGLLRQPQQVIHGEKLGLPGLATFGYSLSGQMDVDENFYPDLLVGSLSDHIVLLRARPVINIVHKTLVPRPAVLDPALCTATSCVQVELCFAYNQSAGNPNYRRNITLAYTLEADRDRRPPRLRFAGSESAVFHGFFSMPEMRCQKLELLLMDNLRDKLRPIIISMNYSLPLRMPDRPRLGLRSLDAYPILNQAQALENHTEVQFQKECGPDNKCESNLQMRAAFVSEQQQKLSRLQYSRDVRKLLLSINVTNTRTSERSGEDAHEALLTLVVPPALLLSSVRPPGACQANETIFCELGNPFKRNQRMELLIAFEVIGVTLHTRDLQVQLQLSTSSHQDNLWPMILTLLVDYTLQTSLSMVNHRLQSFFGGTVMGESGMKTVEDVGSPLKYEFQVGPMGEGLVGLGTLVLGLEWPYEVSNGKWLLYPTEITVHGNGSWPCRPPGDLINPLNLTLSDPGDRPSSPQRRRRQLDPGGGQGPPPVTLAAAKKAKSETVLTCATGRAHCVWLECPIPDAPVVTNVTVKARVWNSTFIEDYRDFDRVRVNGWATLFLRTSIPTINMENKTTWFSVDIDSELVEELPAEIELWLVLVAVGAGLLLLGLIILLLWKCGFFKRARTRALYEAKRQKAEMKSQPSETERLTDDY
T2 sequence (P05556 21-798, chain 2 of 2): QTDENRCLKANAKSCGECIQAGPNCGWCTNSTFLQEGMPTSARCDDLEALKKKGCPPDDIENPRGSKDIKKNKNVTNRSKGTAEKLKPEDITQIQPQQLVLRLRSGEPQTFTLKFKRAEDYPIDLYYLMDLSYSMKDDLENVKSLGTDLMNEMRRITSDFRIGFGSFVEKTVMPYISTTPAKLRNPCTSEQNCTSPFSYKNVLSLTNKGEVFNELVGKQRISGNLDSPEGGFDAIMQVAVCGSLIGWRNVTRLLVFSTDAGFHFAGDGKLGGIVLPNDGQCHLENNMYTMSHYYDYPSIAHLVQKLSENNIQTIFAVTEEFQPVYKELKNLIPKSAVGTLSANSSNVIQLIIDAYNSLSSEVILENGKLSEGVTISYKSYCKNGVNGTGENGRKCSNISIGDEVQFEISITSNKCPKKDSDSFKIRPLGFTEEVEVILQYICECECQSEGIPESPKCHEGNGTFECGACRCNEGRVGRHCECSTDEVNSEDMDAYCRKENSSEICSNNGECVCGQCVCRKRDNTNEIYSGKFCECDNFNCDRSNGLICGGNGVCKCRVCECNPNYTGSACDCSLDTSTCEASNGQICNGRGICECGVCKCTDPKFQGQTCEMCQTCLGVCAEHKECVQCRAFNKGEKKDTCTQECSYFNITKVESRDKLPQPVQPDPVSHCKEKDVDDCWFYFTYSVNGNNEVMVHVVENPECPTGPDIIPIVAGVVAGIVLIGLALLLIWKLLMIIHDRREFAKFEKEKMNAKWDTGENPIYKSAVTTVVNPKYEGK

[3] = target: T3, HER2 (human, UniProt P04626 23-1255); assay: co-immunoprecipitation from mammary cell lysates
T3 construct: whole, on cells; Endogenous protein in cell lysates; also called ErbB2; HER2/Neu

binding result [1]: no binding
B1: human syndecan-1 (receptor)
chain: QIVATNLPPEDQDGSGDDSDNFSGSGAGALQDITLSQQTPSTWKDTQLLTAIPTSPEPTGLEATAASTSTLPAGEGPKEGEAVVLPEVEPGLTAREQEATPRPRETTQLPTTHQASTTTATTAQEPATSHPHRDMQPGHHETSTPAGPSQADLHTPHTEDGGPSATERAAEDGASSQLPAAEGSGEQDFTFETSGENTAVVAVEPDRRNQSPVDQGATGASQGLLDRKEVLGGVIAGGLVGLIFAVCLVGFMLYRMKKKDEGSYSLEEPKQANGGAYQKPTKQEEFYA
notes: Endogenous Sdc1 of human cells, immunoprecipitated from cell lysates; also called hSdc1; Sdc1

binding result [2]: binds
B2: mSdc4ΔC2 mutant (receptor, mouse, UniProt O35988 24-194, looked up)
chain: ESIRETEVIDPQDLLEGRYFSGALPDDEDAGGSDDFELSGSGDLDDTEEPRPFPEVIEPLVPLDNHIPENAQPGIRVPSEPKELEENEVIPKRAPSDVGDDMSNKVSMSSTAQGSNIFERTEVLAALIVGGVVGILFAVFLILLLVYRMKKKDEGSYDLGKKPIYKKAPTN
notes: whole, on cells; Lacks the last four residues, EFYA; also called mSdc4 C2

binding result [3]: no binding
B3: human syndecan-4 (receptor, UniProt P31431 19-198, looked up)
chain: ESIRETEVIDPQDLLEGRYFSGALPDDEDVVGPGQESDDFELSGSGDLDDLEDSMIGPEVVHPLVPLDNHIPERAGSGSQVPTEPKKLEENEVIPKRISPVEESEDVSNKVSMSSTVQGSNIFERTEVLAALIVGGIVGILFAVFLILLLMYRMKKKDEGSYDLGKKPIYKKAPTNEFYA
notes: whole, on cells; Endogenous protein, immunoprecipitated as a control; also called Sdc4; human Sdc4
